According to patent US20140087995A1 (published 2014):
Numbered stars: 1 amine (or outer) side, 2 acyl side, 3 side chain; on linkers, the order of the positions; unused ones are H or OH. Bridge positions count the residues as written; N and C are the ends. Side chains are listed from the residue outwards. Ends that are not written are not given here. * marks the point of attachment. C20 diacid = O=C(O)CCCCCCCCCCCCCCCCCCC(=O)*; C16 diacid = O=C(O)CCCCCCCCCCCCCCC(=O)*; γGlu = O=C(O)[C@H](CCC(=O)[*:2])N[*:1]; C14 diacid = O=C(O)CCCCCCCCCCCCC(=O)*; AEEA = NCCOCCOCC(=O)O

B1: N^ε1-[2-[2-[2-[[2-[2-[2-[[(4S)-4-carboxy-4-(19-carboxynonadecanoylamino)butanoyl]amino]ethoxy]ethoxy]acetyl]amino]ethoxy]ethoxy]acetyl]-[Arg17,Pro21,Pro27,Pro31 … (peptide)
peptide: K([AEEA-AEEA-γGlu-C20 diacid])CNTATCATQRLANFLRHSSPNFGAIPSSTPVGSNTY-NH2
modifications: disulfide 2-7; N-terminus assumed
SMILES: CC[C@H](C)[C@H](NC(=O)[C@H](C)NC(=O)CNC(=O)[C@H](Cc1ccccc1)NC(=O)[C@H](CC(N)=O)NC(=O)[C@@H]1CCCN1C(=O)[C@H](CO)NC(=O)[C@H](CO)NC(=O)[C@H](Cc1c[nH]cn1)NC(=O)[C@H](CCCNC(=N)N)NC(=O)[C@H](CC(C)C)NC(=O)[C@H](Cc1ccccc1)NC(=O)[C@H](CC(N)=O)NC(=O)[C@H](C)NC(=O)[C@H](CC(C)C)NC(=O)[C@H](CCCNC(=N)N)NC(=O)[C@H](CCC(N)=O)NC(=O)[C@@H](NC(=O)[C@H](C)NC(=O)[C@@H]1CSSC[C@H](NC(=O)[C@@H](N)CCCCNC(=O)COCCOCCNC(=O)COCCOCCNC(=O)CC[C@H](NC(=O)CCCCCCCCCCCCCCCCCCC(=O)O)C(=O)O)C(=O)N[C@@H](CC(N)=O)C(=O)N[C@@H]([C@@H](C)O)C(=O)N[C@@H](C)C(=O)N[C@@H]([C@@H](C)O)C(=O)N1)[C@@H](C)O)C(=O)N1CCC[C@H]1C(=O)N[C@@H](CO)C(=O)N[C@@H](CO)C(=O)N[C@H](C(=O)N1CCC[C@H]1C(=O)N[C@H](C(=O)NCC(=O)N[C@@H](CO)C(=O)N[C@@H](CC(N)=O)C(=O)N[C@H](C(=O)N[C@@H](Cc1ccc(O)cc1)C(N)=O)[C@@H](C)O)C(C)C)[C@@H](C)O
notes: also called compound 96
B2: N^ε1-[2-[2-[2-[[2-[2-[2-[[(4S)-4-carboxy-4-(19-carboxynonadecanoylamino)butanoyl]amino]ethoxy]ethoxy]acetyl]amino]ethoxy]ethoxy]acetyl]-[Arg17,Pro21,Pro27,Pro34 … (peptide)
peptide: K([AEEA-AEEA-γGlu-C20 diacid])CNTATCATQRLANFLRHSSPNFGAIPSSTNVGPNTY-NH2
modifications: disulfide 2-7; N-terminus assumed
SMILES: CC[C@H](C)[C@H](NC(=O)[C@H](C)NC(=O)CNC(=O)[C@H](Cc1ccccc1)NC(=O)[C@H](CC(N)=O)NC(=O)[C@@H]1CCCN1C(=O)[C@H](CO)NC(=O)[C@H](CO)NC(=O)[C@H](Cc1c[nH]cn1)NC(=O)[C@H](CCCNC(=N)N)NC(=O)[C@H](CC(C)C)NC(=O)[C@H](Cc1ccccc1)NC(=O)[C@H](CC(N)=O)NC(=O)[C@H](C)NC(=O)[C@H](CC(C)C)NC(=O)[C@H](CCCNC(=N)N)NC(=O)[C@H](CCC(N)=O)NC(=O)[C@@H](NC(=O)[C@H](C)NC(=O)[C@@H]1CSSC[C@H](NC(=O)[C@@H](N)CCCCNC(=O)COCCOCCNC(=O)COCCOCCNC(=O)CC[C@H](NC(=O)CCCCCCCCCCCCCCCCCCC(=O)O)C(=O)O)C(=O)N[C@@H](CC(N)=O)C(=O)N[C@@H]([C@@H](C)O)C(=O)N[C@@H](C)C(=O)N[C@@H]([C@@H](C)O)C(=O)N1)[C@@H](C)O)C(=O)N1CCC[C@H]1C(=O)N[C@@H](CO)C(=O)N[C@@H](CO)C(=O)N[C@H](C(=O)N[C@@H](CC(N)=O)C(=O)N[C@H](C(=O)NCC(=O)N1CCC[C@H]1C(=O)N[C@@H](CC(N)=O)C(=O)N[C@H](C(=O)N[C@@H](Cc1ccc(O)cc1)C(N)=O)[C@@H](C)O)C(C)C)[C@@H](C)O
notes: also called compound 98
B3: N^ε1-[(4S)-4-carboxy-4-(13-carboxytridecanoylamino)butanoyl]-[Arg17,Pro21,Pro27,His34]-h-amylin (peptide)
peptide: K([γGlu-C14 diacid])CNTATCATQRLANFLRHSSPNFGAIPSSTNVGHNTY-NH2
modifications: disulfide 2-7; N-terminus assumed
SMILES: CC[C@H](C)[C@H](NC(=O)[C@H](C)NC(=O)CNC(=O)[C@H](Cc1ccccc1)NC(=O)[C@H](CC(N)=O)NC(=O)[C@@H]1CCCN1C(=O)[C@H](CO)NC(=O)[C@H](CO)NC(=O)[C@H](Cc1c[nH]cn1)NC(=O)[C@H](CCCNC(=N)N)NC(=O)[C@H](CC(C)C)NC(=O)[C@H](Cc1ccccc1)NC(=O)[C@H](CC(N)=O)NC(=O)[C@H](C)NC(=O)[C@H](CC(C)C)NC(=O)[C@H](CCCNC(=N)N)NC(=O)[C@H](CCC(N)=O)NC(=O)[C@@H](NC(=O)[C@H](C)NC(=O)[C@@H]1CSSC[C@H](NC(=O)[C@@H](N)CCCCNC(=O)CC[C@H](NC(=O)CCCCCCCCCCCCC(=O)O)C(=O)O)C(=O)N[C@@H](CC(N)=O)C(=O)N[C@@H]([C@@H](C)O)C(=O)N[C@@H](C)C(=O)N[C@@H]([C@@H](C)O)C(=O)N1)[C@@H](C)O)C(=O)N1CCC[C@H]1C(=O)N[C@@H](CO)C(=O)N[C@@H](CO)C(=O)N[C@H](C(=O)N[C@@H](CC(N)=O)C(=O)N[C@H](C(=O)NCC(=O)N[C@@H](Cc1c[nH]cn1)C(=O)N[C@@H](CC(N)=O)C(=O)N[C@H](C(=O)N[C@@H](Cc1ccc(O)cc1)C(N)=O)[C@@H](C)O)C(C)C)[C@@H](C)O
B4: N^ε1-[(4S)-4-carboxy-4-(15-carboxypentadecanoylamino)butanoyl]-[Arg17,Pro21,Pro27,His34]-h-amylin (peptide)
peptide: K([γGlu-C16 diacid])CNTATCATQRLANFLRHSSPNFGAIPSSTNVGHNTY-NH2
modifications: disulfide 2-7; N-terminus assumed
SMILES: CC[C@H](C)[C@H](NC(=O)[C@H](C)NC(=O)CNC(=O)[C@H](Cc1ccccc1)NC(=O)[C@H](CC(N)=O)NC(=O)[C@@H]1CCCN1C(=O)[C@H](CO)NC(=O)[C@H](CO)NC(=O)[C@H](Cc1c[nH]cn1)NC(=O)[C@H](CCCNC(=N)N)NC(=O)[C@H](CC(C)C)NC(=O)[C@H](Cc1ccccc1)NC(=O)[C@H](CC(N)=O)NC(=O)[C@H](C)NC(=O)[C@H](CC(C)C)NC(=O)[C@H](CCCNC(=N)N)NC(=O)[C@H](CCC(N)=O)NC(=O)[C@@H](NC(=O)[C@H](C)NC(=O)[C@@H]1CSSC[C@H](NC(=O)[C@@H](N)CCCCNC(=O)CC[C@H](NC(=O)CCCCCCCCCCCCCCC(=O)O)C(=O)O)C(=O)N[C@@H](CC(N)=O)C(=O)N[C@@H]([C@@H](C)O)C(=O)N[C@@H](C)C(=O)N[C@@H]([C@@H](C)O)C(=O)N1)[C@@H](C)O)C(=O)N1CCC[C@H]1C(=O)N[C@@H](CO)C(=O)N[C@@H](CO)C(=O)N[C@H](C(=O)N[C@@H](CC(N)=O)C(=O)N[C@H](C(=O)NCC(=O)N[C@@H](Cc1c[nH]cn1)C(=O)N[C@@H](CC(N)=O)C(=O)N[C@H](C(=O)N[C@@H](Cc1ccc(O)cc1)C(N)=O)[C@@H](C)O)C(C)C)[C@@H](C)O

What was measured:
rat calcitonin receptor [1] = molecular target: T1, rat calcitonin receptor (rat, UniProt P32214 25-516); test: SPA competition vs 125I-calcitonin, membranes (Assay VIII)
T1 construct: whole, on cells; Membranes prepared from transiently transfected BHK tk'ts 13 cells; also called rCTR; rat calcitonin (a) receptor
T1 sequence (looked up): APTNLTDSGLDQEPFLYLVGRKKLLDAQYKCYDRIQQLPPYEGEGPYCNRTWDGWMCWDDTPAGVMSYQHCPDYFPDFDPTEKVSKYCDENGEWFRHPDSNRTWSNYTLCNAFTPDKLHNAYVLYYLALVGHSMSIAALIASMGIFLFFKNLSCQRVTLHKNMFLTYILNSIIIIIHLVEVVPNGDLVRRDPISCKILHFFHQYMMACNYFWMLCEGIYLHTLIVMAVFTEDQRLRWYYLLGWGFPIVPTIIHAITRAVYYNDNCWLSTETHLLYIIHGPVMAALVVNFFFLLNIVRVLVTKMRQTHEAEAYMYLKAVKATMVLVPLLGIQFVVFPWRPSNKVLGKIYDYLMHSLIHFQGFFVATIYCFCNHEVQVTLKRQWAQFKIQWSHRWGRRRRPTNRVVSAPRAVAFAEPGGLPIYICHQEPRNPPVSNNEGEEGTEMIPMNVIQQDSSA

rat calcitonin receptor [2] = molecular target: T1, rat calcitonin receptor; test: ratio of IC50 on rat calcitonin receptor to IC50 on rat amylin receptor
[3] = molecular target: T2, rat amylin receptor (rat calcitonin receptor + rat RAMP 3) (rat, UniProt P32214 25-516; Q9JJ73 23-147); test: SPA competition vs 125I-rat amylin, membranes (Assay VI)
T2 construct: whole, on cells; Membranes prepared from transiently transfected BHK tk'ts 13 cells; also called rAmylin-R; rat amylin 3(a) receptor
T2 sequence (looked up) 1: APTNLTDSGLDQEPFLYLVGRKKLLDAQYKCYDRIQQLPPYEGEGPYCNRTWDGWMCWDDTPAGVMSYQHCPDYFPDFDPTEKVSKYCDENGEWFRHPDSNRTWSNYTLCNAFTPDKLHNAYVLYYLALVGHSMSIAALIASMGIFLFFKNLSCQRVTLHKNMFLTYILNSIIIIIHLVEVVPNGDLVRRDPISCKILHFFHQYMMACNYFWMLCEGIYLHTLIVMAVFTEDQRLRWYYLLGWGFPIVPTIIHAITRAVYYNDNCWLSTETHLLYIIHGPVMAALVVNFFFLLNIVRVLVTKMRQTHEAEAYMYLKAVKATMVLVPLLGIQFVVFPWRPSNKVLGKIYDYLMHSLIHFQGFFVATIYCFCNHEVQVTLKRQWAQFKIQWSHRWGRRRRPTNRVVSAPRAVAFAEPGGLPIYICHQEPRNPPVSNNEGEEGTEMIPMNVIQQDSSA
T2 sequence (looked up) 2: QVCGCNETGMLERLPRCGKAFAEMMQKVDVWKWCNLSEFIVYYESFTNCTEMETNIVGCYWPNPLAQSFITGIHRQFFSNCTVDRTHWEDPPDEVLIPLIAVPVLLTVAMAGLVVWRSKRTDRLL

[4] = molecular target: T3, human calcitonin receptor (human, UniProt P30988 25-474); test: ratio of IC50 on human calcitonin receptor to IC50 on human amylin receptor
T3 construct: whole, on cells; Membranes from stably transfected BHK cells; also called hCTR; hCT
T3 sequence (looked up): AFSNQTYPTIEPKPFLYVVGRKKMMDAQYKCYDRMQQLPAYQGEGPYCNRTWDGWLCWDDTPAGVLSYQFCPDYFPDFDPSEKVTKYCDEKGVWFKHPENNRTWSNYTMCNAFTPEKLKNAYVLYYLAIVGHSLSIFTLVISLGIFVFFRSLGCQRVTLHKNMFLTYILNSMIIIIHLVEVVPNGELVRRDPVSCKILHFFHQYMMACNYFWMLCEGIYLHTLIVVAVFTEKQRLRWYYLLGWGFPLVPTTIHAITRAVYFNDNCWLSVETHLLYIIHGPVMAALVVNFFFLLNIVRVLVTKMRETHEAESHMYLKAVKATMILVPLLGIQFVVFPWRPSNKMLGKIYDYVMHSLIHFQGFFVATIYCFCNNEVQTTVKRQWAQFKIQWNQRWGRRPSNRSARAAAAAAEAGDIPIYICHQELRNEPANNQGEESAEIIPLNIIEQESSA
Procedure: The resulting pellet was resuspended, homogenized and centrifuged (20.000 rpm, 15 min) in a buffer containing 20 mM Na-HEPES and 0.1 mM EDTA (pH 7.4, buffer 2). The resulting pellet was resuspended in buffer 2 and protein concentration was measured (BCA protein Assay, Pierce). The homogenate was kept cold during the whole procedure. The membranes were kept at −80° C. until use. The assay was performed in a 384 well Optiplate (PerkinElmer) in a total volume of 40 ul. Membranes were mixed with SPA beads. Final concentration of membranes 35 ng/μL final and SPA beads was 0.05 mg/well. Test-compounds were dissolved in DMSO and further diluted in assay buffer (50 mM Hepes, pH 7.4, 1 mM CaCl2, 5 mM MgCl₂, 0.1% OA and 0.02% Tween20). […] The final mixture was incubated with shaking at 400 rpm for 120 min at 25° C. prior to centrifugation (1500 rpm, 10 min). Samples were analyzed on TopCounter™ (Packard). The IC₅₀ was calculated using (one site binding competition analysis) GraphPad Prism5 as a measure of receptor affinity.
Membranes were prepared in the following way; the cells were rinsed with PBS and incubated with Versene for approximately 5 min before harvesting. The cells were flushed with PBS and the cell-suspension was centrifuged for 5 min at 1000 rpm. Cells were homogenized (Ultrathurrax) in a buffer containing 20 mM Na-HEPES and 10 mM EDTA (pH 7.4) and centrifuged at 20.000 rpm for 15 min. The resulting pellet was resuspended, homogenized and centrifuged (20.000 rpm, 15 min) in a buffer containing 20 mM Na-HEPES and 0.1 mM EDTA (pH 7.4, buffer 2). The resulting pellet was resuspended in buffer 2 and protein concentration was measured (BCA protein Assay, Pierce). The homogenate was kept cold during the whole procedure. The membranes were kept at −80° C. until use. Assay was performed in a 384 well Optiplate (PerkinElmer) in a total volume of 40 ul. Membranes were mixed with SPA beads.

Binder	IC50 (rat calcitonin receptor [1]) [nM]	Ratio rCT/rAmylin binding (rat calcitonin receptor [2])	IC50 [3] [nM]	Ratio hCT/hAmylin binding [4]
B1	62.2	118	0.529	79.6
B2	24.1	176	0.137	74.1
B3	707	280	2.52	23.5
B4	404	327	1.24	18.5
